Tests used:
[1] = target: T1, human pIgR extracellular domain (ECD) (human, UniProt P01833 19-638); assay: SPR, VHH captured by anti-Fc, ECD analyte
T1 construct: Bought from R&D Systems (Cat 2717-PG-050); also called hpIgR ECD
Description: (§1) In an assay, two flow cells of the SPR were used, in which the flow cell 1 ran the buffer reference, and the flow cell 2 ran the analyte. […] The HBSP (GE) buffer was followed at a flow rate of 30 μL/min. Then, the VHHs were captured on the anti-human Fc protein surface at 0.5 ug/ml (˜200-300 RU) on the flow cell 2. The running buffer was changed to HBSP with 100 ug/ml BSA after the capture. Next, the pIgR extracellular domains were used as analyte and loaded in a series of concentrations, starting at 30 nM with further 3-fold dilution series.
(§2) The extracellular domains were prepared as follows: cynomolgus monkey and rat extracellular domains were produced and characterized in house; mouse and human pIgR extracellular domains were purchased from R&D Systems (Cat #2800-PG-050 & 2717-PG-050 respectively). The pIgR extracellular domains were injected from low to high concentration using a single-cycle kinetics method. The off-rate was monitored at 30 minutes after the last or highest concentration injection. The reference run was completed under the same conditions except that the pIgR injection was replaced by buffer injection.
(§3) The raw data were processed by subtracting two sets of reference data from the response data: (1) reference flow cell 1 subtracted from sample flow cell 2; and (2) buffer blank run subtracted from experimental run. The processed data at all concentrations for each VHH were globally fit to a 1:1 simple Langmuir binding model to extract estimates of the kinetic constants (kₒₙ, koff) and affinity constants (KD).

[2] = target: T2, cynomolgus monkey pIgR extracellular domain (cynomolgus monkey, UniProt A0A2K5WMU9 19-638); assay: SPR, VHH captured by anti-Fc, ECD analyte
T2 construct: extracellular domain
Description: as §1, §2, §3

T1 sequence (P01833 other isoform, or with tags, fused parts or gaps): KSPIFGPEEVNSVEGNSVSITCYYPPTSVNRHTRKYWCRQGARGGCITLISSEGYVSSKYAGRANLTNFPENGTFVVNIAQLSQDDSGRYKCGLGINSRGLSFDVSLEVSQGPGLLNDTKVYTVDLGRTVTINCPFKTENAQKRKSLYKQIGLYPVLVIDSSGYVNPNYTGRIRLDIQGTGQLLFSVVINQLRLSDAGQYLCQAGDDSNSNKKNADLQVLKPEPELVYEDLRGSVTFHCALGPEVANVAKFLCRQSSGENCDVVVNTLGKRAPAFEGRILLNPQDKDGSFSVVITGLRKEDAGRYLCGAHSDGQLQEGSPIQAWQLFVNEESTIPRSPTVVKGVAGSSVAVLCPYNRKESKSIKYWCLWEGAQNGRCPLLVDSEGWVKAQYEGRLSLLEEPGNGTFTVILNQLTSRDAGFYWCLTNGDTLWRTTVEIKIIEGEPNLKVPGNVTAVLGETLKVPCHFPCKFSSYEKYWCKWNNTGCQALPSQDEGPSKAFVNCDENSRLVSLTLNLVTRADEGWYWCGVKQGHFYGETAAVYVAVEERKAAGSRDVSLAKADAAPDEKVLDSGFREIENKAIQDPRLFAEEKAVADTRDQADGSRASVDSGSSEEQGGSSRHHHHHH
T2 sequence (A0A2K5WMU9 entry or part of it): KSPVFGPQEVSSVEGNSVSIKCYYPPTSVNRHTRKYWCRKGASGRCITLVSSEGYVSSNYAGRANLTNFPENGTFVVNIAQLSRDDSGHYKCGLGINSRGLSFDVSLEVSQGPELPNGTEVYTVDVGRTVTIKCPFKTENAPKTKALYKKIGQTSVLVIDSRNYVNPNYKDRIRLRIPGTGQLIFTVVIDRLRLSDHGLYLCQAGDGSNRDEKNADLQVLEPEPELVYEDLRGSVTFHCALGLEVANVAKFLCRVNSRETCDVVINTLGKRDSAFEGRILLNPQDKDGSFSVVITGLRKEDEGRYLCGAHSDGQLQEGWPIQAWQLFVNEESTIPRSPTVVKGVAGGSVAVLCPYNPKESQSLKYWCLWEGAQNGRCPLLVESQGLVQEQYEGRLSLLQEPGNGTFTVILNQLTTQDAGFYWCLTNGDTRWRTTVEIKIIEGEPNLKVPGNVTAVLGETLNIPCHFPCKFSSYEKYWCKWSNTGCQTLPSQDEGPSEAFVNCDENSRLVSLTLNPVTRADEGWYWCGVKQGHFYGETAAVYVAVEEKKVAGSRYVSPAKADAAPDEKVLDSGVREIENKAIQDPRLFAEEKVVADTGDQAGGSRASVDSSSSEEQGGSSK

Row | Binder | Kd [1] [nM] | Kd [2] [nM]
1 | 02G04R3 VHH Mono-Fc (Fc fusion) QVQLVESGGGLVQAGGSLRLSCAANGRAANAYAVGWFRQAPGKEREFVAHIRWNGGRTAYADSVKGRFTISRDDAKNTVYLQMDSLKPEDTAVYYCAEDTNPDAFGDLRLPSEYEYWGQGTQVTVSSSPAPELLGGPSVFLFPPKPKDTLMISRTPEVTCVVVDVSHEDPEVKFNWYVDGVEVHNAKTKPREEQYNSTYRVVSVLTVLHQDWLNGKEYKCKVSNKALPAPIEKTISKAKGQPREPQVYTKPPSREEMTKNQVSLSCLVKGFYPSDIAVEWESNGQPENNYKTTVPVLDSDGSFRLASYLTVDKSRWQQGNVFSCSVMHEALHNHYTQKSLSLSPGK | 1.29 | 
2 | 01D04R3LS VHH Mono-Fc (Fc fusion) EVQLVESGGGLVQAGGSLRLSCAASGRTFRSYAMGWFRQAPGKEREFVADISWRGGRLYYADSVKGRFTISRDNAKNTVYLQMNSLKPEDTAVYYCAATGDQPAFTTAQGMGAMLEYDYWGQGTLVTVSSSPAPELLGGPSVFLFPPKPKDTLMISRTPEVTCVVVDVSHEDPEVKFNWYVDGVEVHNAKTKPREEQYNSTYRVVSVLTVLHQDWLNGKEYKCKVSNKALPAPIEKTISKAKGQPREPQVYTKPPSREEMTKNQVSLSCLVKGFYPSDIAVEWESNGQPENNYKTTVPVLDSDGSFRLASYLTVDKSRWQQGNVFSCSVMHEALHNHYTQKSLSLSPGK | 1.16 | 
3 | 01C09R3LS VHH Mono-Fc (Fc fusion) EVQLVESGGGLVQAGGSLRLSCAASGRTINTYVMGWFRQAPGKEREFVARIDWSGSSTDYADSVKGRFTISRDNAKNTVYLQMNSLKPEDTAVYYCAGSAYYSGYVTHRDFGSWGQGTQVTVSSSPAPELLGGPSVFLFPPKPKDTLMISRTPEVTCVVVDVSHEDPEVKFNWYVDGVEVHNAKTKPREEQYNSTYRVVSVLTVLHQDWLNGKEYKCKVSNKALPAPIEKTISKAKGQPREPQVYTKPPSREEMTKNQVSLSCLVKGFYPSDIAVEWESNGQPENNYKTTVPVLDSDGSFRLASYLTVDKSRWQQGNVFSCSVMHEALHNHYTQKSLSLSPGK | 6.92 | 93.7
4 | 01G10R3LS VHH Mono-Fc (Fc fusion) EVQLVESGGGLVQAGGSLRLSCAASGRTINTYVTGWFRQAPGKEREFVARIDWSGSSTDYADSVKGRFTISRDNAKNTVYLQMNSLKPEDTAVYYCAGSAYYSGYVTHRDFGSWGQGTQVTVSSSPAPELLGGPSVFLFPPKPKDTLMISRTPEVTCVVVDVSHEDPEVKFNWYVDGVEVHNAKTKPREEQYNSTYRVVSVLTVLHQDWLNGKEYKCKVSNKALPAPIEKTISKAKGQPREPQVYTKPPSREEMTKNQVSLSCLVKGFYPSDIAVEWESNGQPENNYKTTVPVLDSDGSFRLASYLTVDKSRWQQGNVFSCSVMHEALHNHYTQKSLSLSPGK | 18.5 | 287
5 | 03G05R3 VHH Mono-Fc (Fc fusion) EVQLVESGGGLVQAGDSLRLSCAASGRALSFNTYAMAWFRQAPGKEREFVASITYNGGSTYYADSVKGRFTVTRDNGKNTVTLRMNSLKPDDTAVYYCASAQYWRSGTSFPANYWGQGTQVTVSSSPAPELLGGPSVFLFPPKPKDTLMISRTPEVTCVVVDVSHEDPEVKFNWYVDGVEVHNAKTKPREEQYNSTYRVVSVLTVLHQDWLNGKEYKCKVSNKALPAPIEKTISKAKGQPREPQVYTKPPSREEMTKNQVSLSCLVKGFYPSDIAVEWESNGQPENNYKTTVPVLDSDGSFRLASYLTVDKSRWQQGNVFSCSVMHEALHNHYTQKSLSLSPGK | 3.7 | 30.1
6 | 01C04R3 VHH Mono-Fc (Fc fusion) QVQLVESGGGLVQAGDSLRLSCAASGRALSFNTYAMAWFRQAPGKEREFVASITYNGGSTYYADSVKGRFTVTRDNGKDTVTLRMNSLKPDDTAVYYCASAQYWRSGTSFPANYWGQGTLVTVSSSPAPELLGGPSVFLFPPKPKDTLMISRTPEVTCVVVDVSHEDPEVKFNWYVDGVEVHNAKTKPREEQYNSTYRVVSVLTVLHQDWLNGKEYKCKVSNKALPAPIEKTISKAKGQPREPQVYTKPPSREEMTKNQVSLSCLVKGFYPSDIAVEWESNGQPENNYKTTVPVLDSDGSFRLASYLTVDKSRWQQGNVFSCSVMHEALHNHYTQKSLSLSPGK | 3.09 | 46.3
7 | 01B05R2 VHH Mono-Fc (Fc fusion) EVQLVESGGGLVQAGGSLRLSCAASGRSLSFDTYAMGWFRQAPGKEREFVASIDWNGGSTYYADSVKGRFTISRDNARNTVNLRMNSLKPDDTAVYYCAAARYYTSGTYFPANYWGQGTQVTVSSSPAPELLGGPSVFLFPPKPKDTLMISRTPEVTCVVVDVSHEDPEVKFNWYVDGVEVHNAKTKPREEQYNSTYRVVSVLTVLHQDWLNGKEYKCKVSNKALPAPIEKTISKAKGQPREPQVYTKPPSREEMTKNQVSLSCLVKGFYPSDIAVEWESNGQPENNYKTTVPVLDSDGSFRLASYLTVDKSRWQQGNVFSCSVMHEALHNHYTQKSLSLSPGK | 3.55 | 177
8 | 01B04R2 VHH Mono-Fc (Fc fusion) EVQLVESGGGLVQAGGSLRLSCAASGRTFTSYTMGWFRQAPGKEREFVAAIKWNGGSTYYADSVKGRFTISRDNAKNTVYLQMNSLKPEDTAVYYCAADGDPYFSPTDGIVWHAPHQSEYDYWGQGTLVTVSSSPAPELLGGPSVFLFPPKPKDTLMISRTPEVTCVVVDVSHEDPEVKFNWYVDGVEVHNAKTKPREEQYNSTYRVVSVLTVLHQDWLNGKEYKCKVSNKALPAPIEKTISKAKGQPREPQVYTKPPSREEMTKNQVSLSCLVKGFYPSDIAVEWESNGQPENNYKTTVPVLDSDGSFRLASYLTVDKSRWQQGNVFSCSVMHEALHNHYTQKSLSLSPGK | 16.8 | 

More lines, in order of falling Kd [1], values ahead:

Row | Kd [1] [nM] | Kd [2] [nM] | Binder
9 | 8.39 | 135 | 01E09R3LS VHH Mono-Fc (Fc fusion) EVQLVESGGGLVQAGGSLRLSCAASGRTINTYVMGWFRQAPGKEREFVARIDWSGSSTDYADSVKGRFTTSRDNAKNTVYLQMNGLKPEDTAVYYCAGSAYYSGYVTHRDFGSWGQGTLVTVSSSPAPELLGGPSVFLFPPKPKDTLMISRTPEVTCVVVDVSHEDPEVKFNWYVDGVEVHNAKTKPREEQYNSTYRVVSVLTVLHQDWLNGKEYKCKVSNKALPAPIEKTISKAKGQPREPQVYTKPPSREEMTKNQVSLSCLVKGFYPSDIAVEWESNGQPENNYKTTVPVLDSDGSFRLASYLTVDKSRWQQGNVFSCSVMHEALHNHYTQKSLSLSPGK
10 | 7.54 | 406 | 01H05R3 VHH Mono-Fc (Fc fusion) QVQLVESGGGLVQAGGSLRLSCAASGRSLGFDTYGMAWFRQAPGKEREFVASIDWNGGSTYYADSMKGRFTISRDNAKNTVNLRMNSLKPDDTAVYYCAAARYYTSSTYFPANYWGQGTQVTVSSSPAPELLGGPSVFLFPPKPKDTLMISRTPEVTCVVVDVSHEDPEVKFNWYVDGVEVHNAKTKPREEQYNSTYRVVSVLTVLHQDWLNGKEYKCKVSNKALPAPIEKTISKAKGQPREPQVYTKPPSREEMTKNQVSLSCLVKGFYPSDIAVEWESNGQPENNYKTTVPVLDSDGSFRLASYLTVDKSRWQQGNVFSCSVMHEALHNHYTQKSLSLSPGK
11 | 2.93 | 108 | 03H05R3 VHH Mono-Fc (Fc fusion) QVQLVESGGGLVQAGGSLSLSCAASGRSLSFDTYAMSWFRQAPGKEREFVASIDWNGGSTSYADSMKGRFTISRDNAKNTVNLRIRSLKPDDTAVYFCASARYYIGGTYFPANYWGQGTQVTVSSSPAPELLGGPSVFLFPPKPKDTLMISRTPEVTCVVVDVSHEDPEVKFNWYVDGVEVHNAKTKPREEQYNSTYRVVSVLTVLHQDWLNGKEYKCKVSNKALPAPIEKTISKAKGQPREPQVYTKPPSREEMTKNQVSLSCLVKGFYPSDIAVEWESNGQPENNYKTTVPVLDSDGSFRLASYLTVDKSRWQQGNVFSCSVMHEALHNHYTQKSLSLSPGK
12 | 2.76 |  | 01D09R3 VHH Mono-Fc (Fc fusion) QVQLVESGGGLVQAGGSLRLSCAASGRTFSVYAMGWFRQAPGKERQFVAAITWSGGSTSYADSVKGRFTISRDNAKNTVYLQMNILKPEDTAVYYCAAATNPYFSDYYPDLKYEFDYWGQGTLVTVSSSPAPELLGGPSVFLFPPKPKDTLMISRTPEVTCVVVDVSHEDPEVKFNWYVDGVEVHNAKTKPREEQYNSTYRVVSVLTVLHQDWLNGKEYKCKVSNKALPAPIEKTISKAKGQPREPQVYTKPPSREEMTKNQVSLSCLVKGFYPSDIAVEWESNGQPENNYKTTVPVLDSDGSFRLASYLTVDKSRWQQGNVFSCSVMHEALHNHYTQKSLSLSPGK
13 | 2.09 |  | 02C10R3 VHH Mono-Fc (Fc fusion) EVQLVESGGGLVQPGGSLRLSCAASGFTFSSFTMTWFRQAPGKGLGWVSRISSDGTGTNYADSVKGRFTISRDNAKNTLYLRMNSLKPEDTAVYYCAIADDSSTRGQGTLVTVSSSPAPELLGGPSVFLFPPKPKDTLMISRTPEVTCVVVDVSHEDPEVKFNWYVDGVEVHNAKTKPREEQYNSTYRVVSVLTVLHQDWLNGKEYKCKVSNKALPAPIEKTISKAKGQPREPQVYTKPPSREEMTKNQVSLSCLVKGFYPSDIAVEWESNGQPENNYKTTVPVLDSDGSFRLASYLTVDKSRWQQGNVFSCSVMHEALHNHYTQKSLSLSPGK
14 | 1.67 | 17.5 | 03C10R3 VHH Mono-Fc (Fc fusion) QVQLVESGGGLVQRGGSLRLSCAASGRSLGFDTYAMGWFRQAPGKEREFVASIDWNGGNTYYADSVKGRFTISRDNAKNTVNLRMNSLKPDDTAAYYCAAARYYTSGTYFPANYWGRGTLVTVSSSPAPELLGGPSVFLFPPKPKDTLMISRTPEVTCVVVDVSHEDPEVKFNWYVDGVEVHNAKTKPREEQYNSTYRVVSVLTVLHQDWLNGKEYKCKVSNKALPAPIEKTISKAKGQPREPQVYTKPPSREEMTKNQVSLSCLVKGFYPSDIAVEWESNGQPENNYKTTVPVLDSDGSFRLASYLTVDKSRWQQGNVFSCSVMHEALHNHYTQKSLSLSPGK
